Results on 41 sequences are retold here after the nanobody polyreactivity screen of Harvey et al. (2022).

This data set is described as follows: yeast display, Sf9 membrane polyspecificity reagent, FACS + sequencing; frameworks hold sequencing errors. In outline: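 Synthetic nanobody libraries on Saccharomyces cerevisiae BJ5465 were galactose-induced for 36–48 hours, stained 1 hour at 4 °C with 10% biotinylated, detergent-solubilized Sf9 membrane reagent and enriched on streptavidin microbeads. FACS then separated cells into low and high (top ~1%) gates by anti-HA (expression) and streptavidin (reagent binding) fluorescence. Genes were colony-PCR amplified, MiSeq 2 × 250 sequenced and CDR-length filtered. A clone's polyreactivity label is that of its gate of origin.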
“QVQLVESGGGLVQAGGSLRLSCAASGSIFRYYAMGWYRQAPGKERELVATISSSGGTTYYADSVKGRFTISRDNAKNTVYLQMNSLKPEETAVYYCAALWTWHVSYPVHEYDFWGQGTQVTVSS”: the “polyreactivity (PSR sort gate)” value is recorded as “low polyreactivity”. On to “QVQLVESGGGLVQAGGSLRLSCAASGSIFYPYTMGWYRQAPGKETEFVARITWSGGSTYYADSVKGRFTISRDNAKNTVYLQMNSLKPEDSAVYYCARVAWSESDWQKMDYWGQGTQVTVSS”, for which the “polyreactivity (PSR sort gate)” value is given as “high polyreactivity”. The entry for “QVPLVESGGGLVQAGGSLRLSCAASGRIFYNYAMGWYRQAPGKERELVAAISGSGGSTYYADSVKGRFTISRDNAKNTVYLQMNSLKPEDSSVYYCSTSGPQYYSRNFDYWGQGTQVTVSS” is “low polyreactivity”.

In the case of “QVQLVESGGGLVQAGGSLRLSCAASGFTFSYYAMGWYRKAPGKEMELVAAINWNGGSTYYADSVKGRFTISRDNAKNTVYLQMNSLKPEDTAVYYCNARQSYRYTQHGYWGQGTQVTVSS”, the “polyreactivity (PSR sort gate)” value was “high polyreactivity”. In the case of “QVQLVESGGGLVQAGGSLRLSCAASGFTFVYYAMGWSRQAPGKERELVAAISRSGATTYYADSVKGRFTISRDNAKNTVYLQMNSLKPEDTAVYYCAAVYRHPRENWPDTRYGYWGQGTQVTVSS”, the “polyreactivity (PSR sort gate)” value was “high polyreactivity”. Turning to “QVQLVESGGGLVQAGGSLRLSCAASGSIFKWYAMGWYRQAPGKERELVAVISSGGNTYYADSVKGRFTISRDNAKNTVYLQMNSLKPEDTAVYYCAARVTSHMYYWGQGTQVTVSS”, the “polyreactivity (PSR sort gate)” value is “high polyreactivity”. The entry for “QVQLVESGGGLVQAGGSLRLSCAASGFIFLTNSMGWYRQAPGKERELVAAIRWSDDGTYYADSVKGRFTISRDNAKNTVYLQMNSLKPEDTEVYYCAKEVRNTVTTTGQGTQVTVSS” is “low polyreactivity”. Consider “QVQLVESGGGLVQAGGSLRLSCAASGGIFGSYTMGWYRQAPGKERELVAGISDSGGSTYYADSVKGRFTISRDNAKNIVYLQMNSLKPEDTAVYYCAAVEAYGQEYDYWGQGTQVTVSS”, for which the “polyreactivity (PSR sort gate)” value is recorded as “low polyreactivity”. The result for “QVQLVESGGGLVQAGGSLRLSCAASGSIFRVYAMGWYRPAPGKERELVASISRRGGSTYYADSVKGRFTISRDNEKNTVYLHMNILKPEDTAVYYCAAEFVIGVHCYDYWGQVTQVTVSS” reads “high polyreactivity”.

On to “QVQLVESGGGLVQAGGSLRLSCAASGRTFDVYAMGWYRQAPGKERELVATISYRSARTYYADSVKGRFTISRDNAKNTVYLQMNSLKPEDTAVYYCAAYFETWHGFGYWGQGTQVTVSS”, for which the “polyreactivity (PSR sort gate)” value was “high polyreactivity”. The entry for “QVQLVESGGGLCQAGGSLRLSCAASGRTFYKNTMGWYRQAPGKERELVAAISIRGGSTYFADTVKGRFTISRDNAKNTFYLQMNSLKPEDTAVYYCNVVYQKAARIVDFDYWGQGTQVTLSS” is “high polyreactivity”; for “QVQLVESGGGLVQAGGSLRLRSAASGGTIARYAMGWYRQATGKERELVAAITKSRDLTYYADSVKGRFTISRDSAKNTVYLQMNSLKPEDTAVYYCARPPSTGYQGGYDYWGQGTQVTVSS” it is “high polyreactivity”. As for “QVQLVESGGGLVQAGGSLRLSCAASGFIFSPYVMGSYRQAPGKERELVAAISSIGGSTYYADSVKGRFTISRDNAKKTVYLQMNSLKPEDTAVYYCADSVYYYASRYDYWGQGTQVTVSS”, the “polyreactivity (PSR sort gate)” value is on record as “low polyreactivity”. Take “QVQLVESGGGLVQAGGSLRLSCAASGRTFGGYAMGWYRQAPGKERELVAAINYSGGTTYYADSVKGRFTISRDNAKNTVYLQMNSLKPEDTAVYYCAASDCYGLFYGGPTWWKGHDYWGQGTQVTVSS”: the “polyreactivity (PSR sort gate)” value is given as “high polyreactivity”. As for “QVQLVESGGGLVQAGGSLRLSCAASGFIIGDYAMGWYRQAPGTERELVAAIFSVGSTYYADSVKGRFTISRDNAKNTVYLQMNSLKPEDTAVYYCAARFARYDWSMYYWGQGTQVTVSS”, the “polyreactivity (PSR sort gate)” value is on record as “low polyreactivity”. The entry for “QVQLVESGGGLVQAGGTLRLSCAASGSIFTYNAMGWYRQAPGKERELVAAITRSGGRTYYADSVKGRFTISRDNAKNTVYLQMNSLKPEDNAVYYCNTLRVGWGQGTQVTVSS” is “high polyreactivity”.

Regarding “QVQLVESGGGLVQAGGSLRLSCAASGRIFHQYAIGWSRPAPGKERELVAAISSGGGSTYYADSVKGRFTISRDNAKNTVYLQMNSLKPEDNAVYYCAAVYDYDRGVNYWGQGTQVTVSS”, the “polyreactivity (PSR sort gate)” value is “high polyreactivity”. The result for “QVQHVESGGGLVQAGGSLRLSCAASGFTFLNYSMGWYRQAPGKERELVAAISFSTGRTYYADSVKGRFTISRDNAKNTVYLQMNSLKPEDTAVYYCNAERGFSDYWGQGTQVTVSS” reads “high polyreactivity”; that for “QVQLVESGGGLVQAGGSLRLSCAASGSIFSQNAMGWYRQAPGKERELVASITYSGGSTYYADSVKGRFTISRDNAKNTVYFQMNSLKPEDTEVYYCAADVRYSSRFYYWGQGTQVTVSS”, “high polyreactivity”. As to “QVQLLESGGGLDQAGGSLRLTSAASGSIFYGYAMGWYRQAPRKERELVAAISYSGDRTYYADSVKGRFTISRDNAKNTVYLQMNSLKPEDTAVYYCAARKHGGTVRGRRDYWGQGTQVTVSS”, the “polyreactivity (PSR sort gate)” value is recorded as “high polyreactivity”. For “QVQLVESGGGLVQAGGSLRLSCAASGGTLFQNAMGWYRQAPGKERELVATIRVSGGITYYADSVKGRFTISRDNAKNTVYLQMNSLKPEDTAVYYCAKDSADSRAVGDVLTFDYWGQGTQVTVSS”, the “polyreactivity (PSR sort gate)” value was “low polyreactivity”. The result for “QVQLVESGGGLVQAGGSLRLICAASGSTFDSYAMGWYRQAPGKERELVAAISRSGGRTYYADSVKGRFTISRDNAKNTVYLQMNSLKPEDTAGYYCAAPVKVGHSLSGGDYWGQGTQVTVSS” reads “high polyreactivity”. “QVQLVESGGGLVQAGGSLRLSCAASGSIFSTYAMGWYRQAPGKERELVAAITRRGGSTYYADSVKGRFTISRDNAKNTVYLQMNSLKPEDTAVYYCNAAAKSRMDYWGQATQVTVSS”: the “polyreactivity (PSR sort gate)” value is recorded as “high polyreactivity”. The entry for “QVQHVESGGGLVQAGGSLRISCAPSGRTFFPNAMGCYRQAPGKEREFVAAITKTDDSTYYADSVKGRFTISRDNAKNTVYLPMNSLKPEDTAVYYCNAGDTQIRFYYWGQGTQETVSS” is “low polyreactivity”.

Regarding “QVQLVESGGGLVPAGGSLRLICAASGSTFYGYAIGWYRPAPGKVRELVATITSGGTRTRYADSVKGRFTISRDNAKKTVYLQMNSLKPEDTAVYYCNAVYRARSYDYWGQGTQVTVSS”, the “polyreactivity (PSR sort gate)” value is “high polyreactivity”. Regarding “QVQLVESGGGLVQAGGSLRLSCAASGSTFGTYAMGWYRQAPGKEREFVAVIRWSGGSTYYADSVKGRFTISRDNAKNTVYLQMNSLKPEDTAVYYCNADTRVKYVGWMYYWGQGTQVTVSS”, the “polyreactivity (PSR sort gate)” value was “high polyreactivity”. Take “QVQLVESGGGLVQAGGSLRLSCAASGRIFQKYAMGWSRQAPGKERELVAAISYGGGRTYYADSVKGRFTISRDNAKNTVYLQMNSLKPEDTAVYYCATDYKYAAPTVIESDYWGQGTQVTVSS”: the “polyreactivity (PSR sort gate)” value was “high polyreactivity”. For “QVQLVESGGGLVQAGGSLRLSCAGSGSTFYFYVMGWYRQAPGKDRELVAAITWSGGRTSYADSVKGRFTISRDNAKNTVYLQMNSLKPEDTAVYYCNTDGYPRLYIYDYWGQGTQVTVSS”, the “polyreactivity (PSR sort gate)” value is “low polyreactivity”. The result for “QVQLVESGGGLVQAGGSLRLTCAASGRIFYLNAMGWYRQAPGKERELVAGLTNSTTGTYYADSVKGRFTISRDNAKNTVDLQMNSLKPEDTAVYYCNSDVAYEEPVETYDYWGQGTQVTVSS” reads “low polyreactivity”. For the sequence “QVQLVESGGGLVQAGGSLRLSCAASGRTFSGYAMGWYRQAPGKERELVAAIRLSGGSTYYADSVKGRFTISRDNAKNTVYLQMNSLKPEVTAVYYCARYHGFGYDYWGQGTQGTVSS”, the “polyreactivity (PSR sort gate)” value is on record as “low polyreactivity”. Consider “QVQLVESGGGLVQAGGSLRLSCAASGSIFDRYAMGWYRQAPGKERELVAAISTGGSTNYADSVKGRFTISRDNAKNTVYLQMNSLKPEDTAVYYCAARYLYRMYYWGQGTQVTVSS”, for which the “polyreactivity (PSR sort gate)” value is “low polyreactivity”. “QVQLVESGGGLVQAGGSLRLSCAASGSIFQGYAMGWYRQAPGKERELVAAITSSGGSTYYADSVKGRFTISRDNAKNTVYLQMNSLKPEDTAVYYCAARGYSHVASRLYYYWGQGTQVTVSS”: the “polyreactivity (PSR sort gate)” value was “high polyreactivity”. For “QVQLVESGGGLVQAGGSLRLSCAASGRIFSFYAMGWYRQAPGKERELVATISKRAGSTYYADSVKGRFTISRDNAKNTVYLQMNSLKPEDTAVYYCAARKWYYASSRWRDYWGQGTQVTVSS”, the “polyreactivity (PSR sort gate)” value is on record as “high polyreactivity”. The entry for “QVQLVESGGGLVQAGGSLRLICAASGSIFVYNAMGSYRQAPAKERELVAAISQRGGSTYYADSVKGRFTISRDNAKNTVYLQMKSLKPEDTAVYYCAAGPGDSGDDYWGQGTQVTVSS” is “low polyreactivity”; for “QVQLVESGAGLVQAGGSLRLSCAASGRTFWVYSMGWSRQAPGKESELVAAFRRGGITNYADSVKGRFTISRDNAKITVYLQMNCLNPEDTAVYYCATENYGYLTRYYYWGPGTQVTVSS” it is “low polyreactivity”; for “QVQLVESGGGLVQAGGSLRLSCAASGRIFQPYAMGWYRPAPGKDRELVAAITRRAGSTYYADSVKGRFTISRDNAKYTVYLQMNSLKPEDTAVYYCAARGLYWAYEMEYWGQGTQVTVSS” it is “low polyreactivity”.

In the case of “QVQLVESGGGLVQAGGSLRLSCAASGRIFNVYAMGWYRQAPGKERELVASITSAGSTYYADSVKGRFTISRDNAKITVYLQMNSLKPEDTAVYYCAADSYSVYYYTYDSWGQGTQVTVSS”, the “polyreactivity (PSR sort gate)” value is on record as “low polyreactivity”. As for “QVQLVESGGGIVQAGGSLRLSCAASGFTISRNTMGWYRQAPGKEREFVARISAYGGSTYYADSVKGRFTISRDNAKNSVYLQMNSLKPVDTAVYYCAAVYRRYGGSRYDYWGQGTQVTVSS”, the “polyreactivity (PSR sort gate)” value is reported as “high polyreactivity”.

As to “QVQLVESGGGLVQEGGSLRLSCAASGRIFRRYTMGWYRQAPGKERELVAVITSGGNTHYADSVKGRFTISRDNAKNTVYLQMNSLKPEDTAVYYCAARHYRGSNDYWGQGTQVTVSS”, the “polyreactivity (PSR sort gate)” value was “high polyreactivity”.

As to “QVQLVESGGGLVQAGGSLRLSCAASGITFYGYAMGWYRQAPGKERELVARITISGRTNYADYVKGRFTISRDNAKNTVYLQMNSLKPEDTAVYYCATLVHWSYPYYYWGQGTQVTVSS”, the “polyreactivity (PSR sort gate)” value is “high polyreactivity”. For the sequence “QVQLVESGGGLVQAGGSLRLSCAASGSTFYPYAMGWYRQAPGKERELVAAIRFSGASTYYADSVKGRFTISRDNAKNTVYLQMNSLKPEDTAVYYCAARYVYSWPYRYGYWGQGTQVTVSS”, the “polyreactivity (PSR sort gate)” value is on record as “low polyreactivity”.
